Laboratory results: the domain aggregation screens of Martell et al. (2025)

Assay: soluble fraction after stress (log2 fold change); higher = more stays soluble; pooled small domains, quantitative proteomics
Settings: stress: 50 degC
How it was run: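 Each library was heated to 50°C as a stress step. The libraries, made up of small protein domains, were pooled and analysed at high throughput by quantitative proteomics. The reported value is the base-two logarithm of the fold change in each protein's soluble amount after stress, taken as a measure of aggregation propensity. The higher the value, the more protein stays in solution.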

Sequence	soluble fraction (log2)
HMNLDVPGIIKRAKQALNLKRDSELAEFLGVSRATVTNWAARNSIDFRLLLDKLGNTVDYNWLLLGKGNPK	-0.221
HMAASGTVNSGGDPLRVRADPNTSSQILTKLSDGTQVEVLEQAENGWYKIAHEGISGFVSGEYLVVH	0.133
HMLAYQRTYEKILEDLRNDVYPVNSLLPPEPKLEEIYHVSRTTVRRAIAQLADEGYVKVKQGYGTVVLKN	-0.339
HMIKSIRELAEVITLWKNQGKTILIAEHRLSYLMDLADRVLYMKDGQIENDFSMADFRKIPPDEISRMGLR	-0.126
HMDYHTIQTGDKGDEVLRLQQALAEYGYYEGDLDGRFGQQTRRAVERFQYSHGLTADGIAGRNTLSVLYD	-0.101
HMTSVFQNSDGTWGHLTKTVNPLIYTIEYGRRTGFSSREEAEESYQRSLTSYQDQLSKLKKERD	0.314
HMNLDPHVVGHRLRDLRTRRDLTLADVAAETDISVSTLSRLESGSRRATLELLVPLARTYRVTLDELVDA	-0.66
HMADWTETELAALRRAYASGTTRVSYDGKSVDYGSAEDLLSRIRTLQGAASDVAADAVAAVDA	0.0524
HMAAQLAHVPAVTGRPLAEAQRILADNRLNAQVTQQPVAEPKLDGVVIAQKITEGTRTMRGATVPLIVGKY	0.128
HMSEVPVLVAKTDIKELELIDDRKVTLINVPQKFKMPGSFNSPEEVYNTIAAVPIKEGEQITKPRVTWP	0.134
HMEVKEVDYSAFMTMTEENSISKVEIEENQILFKKKGDDQTTYKTARMDDPALITRLHDQGVDFTGQ	0.0677
HMEVLPLHQVKLKYAEADTILIALKSAQSMLSPRGQLLADNRSQQIFVYDDEAHTATLIEAIKHLDQPL	-0.0429
HMDDPITVAYRETEDAIAQVQREGFPVEMPPANSYIRRIQHELAGRFNLDSESYGDEPERRVRIRPQQ	-0.00875
HMDSVEMFSPILGMNANMDLDTLTQTRDKLLEKYKDDEQLIGLVNKTYDYFNEILLKQFLIEELEKNE	-0.153
HMDRIISTPMPGRVVKIPVTEGEPVAKGATVITISAMKMESEYKSPIDGIVKKIHVSEGDNINANQPLIEI	-0.178
HMNSNKFANAAAVAVAEKPADSYNPLFIYGPSGVGKTHLLYAIANEIHKHHPDYNIVYIKGDQFTNELIN	-0.0439
HMGNPSGLPLPRFASTRSEPINVRVGPGQKYDIAWTYLKSGIPVEIIQEFDTWRKIRDFDGAEGWIHQNLL	-0.937
HMRILGIDPGYAITGYSIIDYVGNKFKLIDSGAVLTKAGVSFPLRLTKIYDDLSMIIDEYKPDA	-0.207
HMNLGNLAYESKVTKQVLNMIRPLHPEYSSDDITRAVKEILSEEGSRQRRVDEIARGALDVLMGNPR	0.216
HMEVADAAQRKILQALQVQPLTVEQLSQELRTDTGDLLVSLSMMEITGLIRREAGNTFLAVFAPK	-0.448
HMGDLLTVDRVAATSGLGVDTIRYYQRLGLLDPPVRHGRRALYSTAHLDRLVEIRQLADEGFSLAQIATL	-1.08
HMVQIVINKEVQTTSQTILRENAGTSSRNIGYVDPNVKLRATLDRNSFYFIPEKKGWIMKSRVKLIEDLS	-3.79
HMLGRPDMSPIPEGSRNNDLHAWGFGRLANHPDNKRQIEADFFERGRISGLGDAEIRASWNSILRQLGHQ	0.14

Sequence	soluble fraction (log2)
HMKSILDDVVGLGPVRKKALLSAAGGFRKLRDMDVDEVIGLGAVPEEVAREVVTVLAQYNGERDRVEGL	-0.0545
HMESADEESNALMYDGLLAMRGKRYEVALEFFDALVKHDPDFAEGWNKRATVLYLLGRYERSIADIKQVLA	-0.0654
HMSNEYLMPNLIGMSWDEAKSKYSQYMTLVPEQEWSEVTKDQIFDQEYPEGRKVKIGTEVTVKVSMGI	-0.192
HMPTMVAQINEIVQAKLPGSGLKDYTIRLVESQRDGVVVWVNGTRYLGVDEVAEPQVQALLKEAVAEWERS	-0.132
HMDAQEAAWARKMMETLPEKQKLSVALRIEEGLSFKEIGEIIGSSEGAARVNYFHGIRRLRELL	-0.688
HMINRPVYVPLYTNLDVKDAAEIAEKLEENNIAYKLEDQGETILVNPEQKYKVRLMLAQEGLPKG	-0.0681
HMGIVTMPGQGSKMRFDFDATGDLPSSTSWRGMFAYANNTKRAYVSTGTTMGGYNGWRQLIAMDEYGNYQT	-0.0345
HMAVFSKKQIFDTAFALFESKGLEAITARNLGKALSSSPAPIYAHYSSITELKNELISVAKDR	-2.25
HMTFENMFIENSGETLDREFLVENLRGISWQSYDRSVDVLVSRLRGKLGETPNNTRFIKTIHGVGYKFIGE	-0.316
HMDSHSAESVRQRIKDMIAAEASKSILSDDTIVENLKSEGIEIARRTVAKYRESLNIPSSIQRRRIARSEA	-0.0963
HMQILNVFSKHGIKPISPQIGDKFDPQLHEAMFEAPVPGTKAGDIIEVSSEGFMLYDRLLRPAHVGVSSN	0.0206
HMNIIMLGEFIKEQRIKRKMTQEYLASELGISRPTYSQIELGTRELTIPEARKMAAIFNISLEDFLAEKE	-0.604
HMVQVPSLVGISEIEAKTLLTQAGFFVKIVEVFDANQPVGIVLAQAPSAGESRIIGSPVTITVNKAQ	-0.867
HMPSLSAILHDARVAAGLSMRQASAASGLSIGFISMLEQGKVQDISLQRLGRLVTAYDLEPLDVIEAAG	-1.55
HMSQSYHLADRGQSLGTLDYQAVLVGLATGRLSPDTLSWQEGEAGWVALRQRPEFASGVSAVASL	0.0116
HMSENEIDELRRRFAREAMALMERKGEEVSRTRLAAELSVARARIDAVFPEESDLLEAVTAEWFA	-0.562
HMNYYDLLGIPKSATKQQIRKAYRTKAKEFHPDVNGPFNSHMHFLLLKQAYETLMDANMRHVYDMALIS	-1.35
HMDPLASLTPREREVLSLMAQGLSNLAVAERLVVSAGAVEKHISSIFTKLDLAPSEHEHRRVLAVLRYVAG	-3.2
HMNFDVETGLPLDSRLVVSGLIQRDGINSLKRYEGMIVYVESEAKNYQLVGGISNTDWAELS	-0.916
HMSSQVFLGQKNSIAKYDLNENKPIWTKEIKGTPLILSTWKDMLLIQIQTWVSYTHMLVKQENGQTVWE	0.318
HMIETIIGAEGKVLETIDNFNQKGVVALAGKEWTARSADASIIPEGAKVSVVEISGVKLIVTQN	0.067
HMVNYKEILRLAHEGYSQRQIATNIGNSRNTVSEVLDAAKAANIAWPPEETVTNEQLGAILFPNRH	0.204
HMKTFQSYQTTSMSNVNLRKRANGTSTILKRIKVGDTVTVVGKSGNYYQIQFDGKEGYALIKYIDGTDSGA	-0.247

Sequence	soluble fraction (log2)
HMSTTYAPYLLGETEQEAIRMARNAGLDPQVVRQSDKSEAGTVILQSHDFGFAMKRGAVILITVSSGPLQ	-1.44
HMQRDTIAISAIPTAIKTYLSSTYPTDTLVHAFVNKDQSIVVISKNIDFYATSFSTANAFIKRIQLPA	-1.03
HMEMLQRFIFLENVSSTQVESAIKELHPNLNLKRVKLSFPGADTVLLKGPKQDLELAEELIRHLDRSE	-0.0342
HMDKAGWLPARVRLADYPALKQLAWQVQGVDELTPREALGIYERNWRHLDEAALLPRERNLIDALRLAFG	-0.207
HMTPNRDDEHLQSLRDYYASNRRIPSLQRIAALLGFSSRSAAVKLMGRLADEGFVERTVDDDAWIPGSRFF	-0.808
HMNNFNVVVGKAIKNSFNTRENYITINAGKVLGIKTDMGVINDKGIVGIVEKTSKDFATIQSVLNIKS	0.00115
HMTAAPEVRVEGLFKGAAVLKIDGQQVMLKKGRSHSSGVTLVDANAHRAIVEIDGQRHELALHMA	0.0499
HMVDPELFIWVESSKEPVYHLAYKIELFVHSTDPQDDVPVHRWQVFVDAHNGNILDKFDEVR	-0.159
HMEQKELAPLVPQEDGSVKLTNLAGYSMREVAAALEGGNLSLIPIGSGTSWKQDPAPGTVLQPGNTVTVYF	0.00354
HMSTQGRRIEILRHLTQTKKKADVNFVELGRTFGTSDTTIRKDLDWLIKNEYWENHGEWKPTQAGLNMI	0.0347
HMDALTLSIDAQGALYWNGQPVSRELAAQRFVEAAAQRPQPELHLRADQNVAYRHVAMTLADASRAGLTR	-0.0244
HMIIVMRKGATEAQVNDIVERVRAAGFGVHLSQGEERTIIGAIGGDRAVLADLNLEAAPGVERVTPIS	0.0417
HMLDTPLTARELDVLYLMRQRMSAKEIAKQLGIATMTVNRHAANLYRKLGVNTRWDAVYRAEEVGILPP	-0.992
HMLLTHEEQIVKRGWQAPVGPFAILDSRAEAMHGDLEMLRGDREAAEQHFRRAWQIIGPIVEQ	-0.0656
HMTPATVVIPKVAGQTVAEAKETLKNANFEIGEEKDESSDTVEEGRVIRTDPESGTNRKEGTKINLIVSS	-0.0325
HMYYQEDHDIILEETEDVTDPYLITLRGYIFLNNLQWVAARQAFLSADERFRHRHYSALIAPIMQTIDNAA	-0.013
HMSEQLHALIDRLDDIPDDELKKNWPGTLRDLVDVISAELHRQGIEPAQAGMLARKVAAAQAGYMG	-0.344
HMAPDDTAVWSAFIGWFRTAPDGPNPLGAYAAKLGEEGLDAAEVGRRMTVIVRLFAEKPEGAEVFYDRTYA	-0.875
HMNSRQPEEEALFELLAKNPYSDEQLEEIRIAIGSGISYKDVLVIADIKNTAKQMKKLRLKFTKDTG	-0.122
HMYMKTITEQFGERLKKIRTQKSLSQEQLSYLADIDRSYISDVERGARNISLENIYKLASALNIPPYLVLL	-0.273
HMSGSFDVTLDYLNSLRNLYPAIDVEQEFRKMYAWLDSNPKNRKTERGIKRFITGWLGRAQDKAP	-1.12
HMKNSIKLDNFVGMSYDEVISNKEYDFNFVSAFEKTSDYEAGTIIGQTPAAEERVMVGTTVTLTVAQP	0.0342
